Assays:
[1] = biological target: T1, human CLDN18.2 (human); assay: FACS, NUGC4 cells
T1 construct: also called hCLDN18.2; Claudin-18 splice variant 2

[2] = biological target: T2, human CLDN18.1 (human, UniProt P56856 1-261); assay: FACS, HEK293-CLDN18.1 cells
T2 construct: on HEK293-CLDN18.1 cells; also called Claudin-18 splice variant 1; NP_057453.1

[3] = biological target: T1, human CLDN18.2; assay: FACS, HEK293-CLDN18.2 cells
[4] = biological target: human CLDN18.2-mRFP Q29A (human); assay: FACS, transfected HEK293, 10 µg/ml antibody;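 further: antibody binding detected by flow cytometry with FITC-labelled anti-human IgG secondary, gated on RFP-positive cells, mutant signal relative to wild-type CLDN18.2-mRFP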
Sequence of human CLDN18.2-mRFP Q29A (human) (chain, as listed by the source Q29A Q29A limits assumed): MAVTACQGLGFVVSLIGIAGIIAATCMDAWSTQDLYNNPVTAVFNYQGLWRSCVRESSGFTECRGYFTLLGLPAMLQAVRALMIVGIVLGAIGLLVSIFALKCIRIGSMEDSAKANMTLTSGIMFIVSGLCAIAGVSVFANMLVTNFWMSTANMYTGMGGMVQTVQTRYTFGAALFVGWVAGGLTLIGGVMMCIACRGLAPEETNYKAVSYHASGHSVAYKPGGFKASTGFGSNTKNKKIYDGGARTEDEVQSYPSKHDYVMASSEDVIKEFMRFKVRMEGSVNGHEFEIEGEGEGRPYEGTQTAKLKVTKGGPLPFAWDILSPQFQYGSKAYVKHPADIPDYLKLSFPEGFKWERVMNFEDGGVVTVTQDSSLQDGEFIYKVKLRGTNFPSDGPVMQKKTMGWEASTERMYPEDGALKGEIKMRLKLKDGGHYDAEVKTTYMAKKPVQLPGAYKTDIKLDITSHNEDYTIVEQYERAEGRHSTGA
Description: (§1) The transfected HEK293-CLDN18.2 or HEK293-CLDN18.1 cell were resuspended in PBS with 2% BSA at density of 10\hat{ }5/well, 100 μl/well. […] Next, cells were washed 3 times by FACS washing buffer and incubated with 100 μl/well goat anti-hIgG (H+L)-FITC (1:200 dilution) at 4° C. for another 30 min. Finally, cells were washed 3 times by FACS washing buffer and analyzed by Flow Cytometry. To analyze binding to CLDN18.2 transfected cells, the RFP positive cells were used for control gating.
(§2) Subsequently, these plasmids of mutants and wild-type CLDN18.2-mRFP were transfected into HEK293 cell.

[5] = biological target: human CLDN18.2-mRFP W30A (human); assay: FACS, transfected HEK293, 10 µg/ml antibody;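 further: antibody binding detected by flow cytometry with FITC-labelled anti-human IgG secondary, gated on RFP-positive cells, mutant signal relative to wild-type CLDN18.2-mRFP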
Description: as §1, §2

[6] = biological target: human CLDN18.2-mRFP S31A (human); assay: FACS, transfected HEK293, 10 µg/ml antibody;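 further: antibody binding detected by flow cytometry with FITC-labelled anti-human IgG secondary, gated on RFP-positive cells, mutant signal relative to wild-type CLDN18.2-mRFP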
Description: as §1, §2

[7] = biological target: human CLDN18.2-mRFP T32A (human); assay: FACS, transfected HEK293, 10 µg/ml antibody;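 further: antibody binding detected by flow cytometry with FITC-labelled anti-human IgG secondary, gated on RFP-positive cells, mutant signal relative to wild-type CLDN18.2-mRFP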
Description: as §1, §2

[8] = biological target: human CLDN18.2-mRFP D34A (human); assay: FACS, transfected HEK293, 10 µg/ml antibody
Description: as §1, §2

[9] = biological target: human CLDN18.2-mRFP L35A (human); assay: FACS, transfected HEK293, 10 µg/ml antibody
Description: as §1, §2

[10] = biological target: human CLDN18.2-mRFP N37A (human); assay: FACS, transfected HEK293, 10 µg/ml antibody
Description: as §1, §2

[11] = biological target: human CLDN18.2-mRFP N38A (human); assay: FACS, transfected HEK293, 10 µg/ml antibody
Description: as §1, §2

[12] = biological target: human CLDN18.2-mRFP T41A (human); assay: FACS, transfected HEK293, 10 µg/ml antibody
Sequence of human CLDN18.2-mRFP T41A (human) (chain, as listed by the source T41A T41A limits assumed): as the sequence (chain, as listed by the source Q29A Q29A limits assumed) above, with A29Q, T41A counted along it
Description: as §1, §2

[13] = biological target: human CLDN18.2-mRFP V43A (human); assay: FACS, transfected HEK293, 10 µg/ml antibody
Description: as §1, §2

[14] = biological target: human CLDN18.2-mRFP F44A (human); assay: FACS, transfected HEK293, 10 µg/ml antibody
Sequence of human CLDN18.2-mRFP F44A (human) (chain, as listed by the source F44A F44A limits assumed): as the sequence (chain, as listed by the source Q29A Q29A limits assumed) above, with A29Q, F44A counted along it
Description: as §1, §2

[15] = biological target: human CLDN18.2-mRFP N45A (human); assay: FACS, transfected HEK293, 10 µg/ml antibody
Sequence of human CLDN18.2-mRFP N45A (human) (chain, as listed by the source N45A N45A limits assumed): as the sequence (chain, as listed by the source Q29A Q29A limits assumed) above, with A29Q, N45A counted along it
Description: as §1, §2

[16] = biological target: human CLDN18.2-mRFP Y46A (human); assay: FACS, transfected HEK293, 10 µg/ml antibody
Sequence of human CLDN18.2-mRFP Y46A (human) (chain, as listed by the source Y46A Y46A limits assumed): as the sequence (chain, as listed by the source Q29A Q29A limits assumed) above, with A29Q, Y46A counted along it
Description: as §1, §2

[17] = biological target: human CLDN18.2-mRFP Q47A (human); assay: FACS, transfected HEK293, 10 µg/ml antibody
Sequence of human CLDN18.2-mRFP Q47A (human) (chain, as listed by the source Q47A Q47A limits assumed): as the sequence (chain, as listed by the source Q29A Q29A limits assumed) above, with A29Q, Q47A counted along it
Description: as §1, §2

[18] = biological target: human CLDN18.2-mRFP L49A (human); assay: FACS, transfected HEK293, 10 µg/ml antibody
Description: as §1, §2

[19] = biological target: human CLDN18.2-mRFP W50A (human); assay: FACS, transfected HEK293, 10 µg/ml antibody
Description: as §1, §2

[20] = biological target: human CLDN18.2-mRFP V54A (human); assay: FACS, transfected HEK293, 10 µg/ml antibody
Description: as §1, §2

[21] = biological target: human CLDN18.2-mRFP R55A (human); assay: FACS, transfected HEK293, 10 µg/ml antibody
Description: as §1, §2

[22] = biological target: human CLDN18.2-mRFP E56A (human); assay: FACS, transfected HEK293, 10 µg/ml antibody
Description: as §1, §2

[23] = biological target: human CLDN18.2-mRFP S57A (human); assay: FACS, transfected HEK293, 10 µg/ml antibody
Description: as §1, §2

[24] = biological target: human CLDN18.2-mRFP S58A (human); assay: FACS, transfected HEK293, 10 µg/ml antibody
Sequence of human CLDN18.2-mRFP S58A (human) (chain, as listed by the source S58A S58A limits assumed): as the sequence (chain, as listed by the source Q29A Q29A limits assumed) above, with A29Q, S58A counted along it
Description: as §1, §2

[25] = biological target: human CLDN18.2-mRFP F60A (human); assay: FACS, transfected HEK293, 10 µg/ml antibody
Description: as §1, §2

[26] = biological target: human CLDN18.2-mRFP R64A (human); assay: FACS, transfected HEK293, 10 µg/ml antibody
Description: as §1, §2

[27] = biological target: human CLDN18.2-mRFP Y66A (human); assay: FACS, transfected HEK293, 10 µg/ml antibody
Sequence of human CLDN18.2-mRFP Y66A (human) (chain, as listed by the source Y66A Y66A limits assumed): as the sequence (chain, as listed by the source Q29A Q29A limits assumed) above, with A29Q, Y66A counted along it
Description: as §1, §2

[28] = biological target: human CLDN18.2-mRFP F67A (human); assay: FACS, transfected HEK293, 10 µg/ml antibody
Sequence of human CLDN18.2-mRFP F67A (human) (chain, as listed by the source F67A F67A limits assumed): as the sequence (chain, as listed by the source Q29A Q29A limits assumed) above, with A29Q, F67A counted along it
Description: as §1, §2

[29] = biological target: human CLDN18.2-mRFP T68A (human); assay: FACS, transfected HEK293, 10 µg/ml antibody
Description: as §1, §2

[30] = biological target: human CLDN18.2-mRFP L69A (human); assay: FACS, transfected HEK293, 10 µg/ml antibody
Sequence of human CLDN18.2-mRFP L69A (human) (chain, as listed by the source L69A L69A limits assumed): as the sequence (chain, as listed by the source Q29A Q29A limits assumed) above, with A29Q, L69A counted along it
Description: as §1, §2

[31] = biological target: human CLDN18.2-mRFP L70A (human); assay: FACS, transfected HEK293, 10 µg/ml antibody
Description: as §1, §2

[32] = biological target: human CLDN18.2-mRFP L72A (human); assay: FACS, transfected HEK293, 10 µg/ml antibody
Description: as §1, §2

[33] = biological target: human CLDN18.2-mRFP M75A (human); assay: FACS, transfected HEK293, 10 µg/ml antibody
Description: as §1, §2

[34] = biological target: human CLDN18.2-mRFP L76A (human); assay: FACS, transfected HEK293, 10 µg/ml antibody
Description: as §1, §2

[35] = biological target: human CLDN18.2-mRFP Q77A (human); assay: FACS, transfected HEK293, 10 µg/ml antibody
Description: as §1, §2

[36] = biological target: human CLDN18.2-mRFP V79A (human); assay: FACS, transfected HEK293, 10 µg/ml antibody
Description: as §1, §2

[37] = biological target: human CLDN18.2-mRFP R80A (human); assay: FACS, transfected HEK293, 10 µg/ml antibody
Description: as §1, §2

B1: 59A9-C (antibody, human IgG1, V domains shown)
VH: QITQKESGPGILQPSQTLSLTCSLSGFSLSTYFIGVGWIRQPSGKGLEWLAHIWWNDNKYYNTALKSRLTISKDTSNNQVFLKIASVDTADTATYYCARMGSGAWFTYWGQGTLVTVSA
VL: DIVMTQSPSSLTVTAGEKVTMSCKSSQSLLNSGNQKNYLTWYQQKPGQPPKLLIYWASTRESGVPDRFTGSGSGTDFTLTISSVQAEDLAVYYCQNDYYYPLTFGSGTKLEIK
notes: also called chimeric 59A9
[1]
  EC50: 19.1 µg/mL
[2]
  binding result: no binding
[3]
  EC50: 1.35 µg/mL
[4]
  binding percentage vs wild-type CLDN18.2: 54.8%
[5]
  binding percentage vs wild-type CLDN18.2: 3.2%
[6]
  binding percentage vs wild-type CLDN18.2: 76.8%
[7]
  binding percentage vs wild-type CLDN18.2: 85.6%
[8]
  binding percentage vs wild-type CLDN18.2: 96.3%
[9]
  binding percentage vs wild-type CLDN18.2: 75.4%
[10]
  binding percentage vs wild-type CLDN18.2: 60.7%
[11]
  binding percentage vs wild-type CLDN18.2: 57.6%
[12]
  binding percentage vs wild-type CLDN18.2: 41.6%
[13]
  binding percentage vs wild-type CLDN18.2: 59.4%
[14]
  binding percentage vs wild-type CLDN18.2: 70%
[15]
  binding percentage vs wild-type CLDN18.2: 35.2%
[16]
  binding percentage vs wild-type CLDN18.2: 15%
[17]
  binding percentage vs wild-type CLDN18.2: 57.5%
[18]
  binding percentage vs wild-type CLDN18.2: 2.32%
[19]
  binding percentage vs wild-type CLDN18.2: 5.05%
[20]
  binding percentage vs wild-type CLDN18.2: 87.2%
[21]
  binding percentage vs wild-type CLDN18.2: 49.7%
[22]
  binding percentage vs wild-type CLDN18.2: 21.9%
[23]
  binding percentage vs wild-type CLDN18.2: 77.2%
[24]
  binding percentage vs wild-type CLDN18.2: 39.4%
[25]
  binding percentage vs wild-type CLDN18.2: 64.4%
[26]
  binding percentage vs wild-type CLDN18.2: 51%
[27]
  binding percentage vs wild-type CLDN18.2: 52.5%
[28]
  binding percentage vs wild-type CLDN18.2: 79.9%
[29]
  binding percentage vs wild-type CLDN18.2: 71.3%
[30]
  binding percentage vs wild-type CLDN18.2: 54.8%
[31]
  binding percentage vs wild-type CLDN18.2: 82.1%
[32]
  binding percentage vs wild-type CLDN18.2: 53%
[33]
  binding percentage vs wild-type CLDN18.2: 73.6%
[34]
  binding percentage vs wild-type CLDN18.2: 52.1%
[35]
  binding percentage vs wild-type CLDN18.2: 63.4%
[36]
  binding percentage vs wild-type CLDN18.2: 39.1%
[37]
  binding percentage vs wild-type CLDN18.2: 13.6%

Source: US20220306765A1 (SUZHOU TRANSCENTA THERAPEUTICS, published 2022)
